The results in this text go back to patent US20030232051A1 (GOVERNMENT OF THE UNITED STATES OF AMERICA AS REPRESENTED …, published 2003).

The test addresses T1, KIR2DL4 receptor (on NK cells or on cells transfected with 2DL4) (human, UniProt Q99706 22-377).
T1 construct: whole, on cells; Endogenous on human NK cells and NK cell lines (NK3.3, NKL, NK92) or on transfected cells; also called CD158d
Kind of test: transfection experiments in Ba/F3 and 293T cells.

T1 sequence (Q99706 22-377): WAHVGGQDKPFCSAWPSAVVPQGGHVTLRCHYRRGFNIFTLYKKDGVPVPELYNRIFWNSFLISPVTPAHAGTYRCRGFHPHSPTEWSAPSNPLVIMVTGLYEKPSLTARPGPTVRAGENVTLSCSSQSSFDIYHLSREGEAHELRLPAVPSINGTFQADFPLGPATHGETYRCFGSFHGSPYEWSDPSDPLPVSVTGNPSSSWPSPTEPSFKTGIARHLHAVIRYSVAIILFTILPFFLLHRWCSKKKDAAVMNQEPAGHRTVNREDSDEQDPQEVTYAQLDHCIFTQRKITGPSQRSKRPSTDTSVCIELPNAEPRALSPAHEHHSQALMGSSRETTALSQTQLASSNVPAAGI

B1: FcRγ chain (other, UniProt P30273 19-86, looked up)
chain: LGEPQLCYILDAILFLYGIVLTLLYCRLKIQVRKAAITSYEKSDGVYTGLSTRNQETYETLKHEKPPQ
notes: whole, on cells
Consider B1, for which the binding result was “no binding”.

B2: DAP12 (other, UniProt O43914 22-113, looked up)
chain: LRPVQAQAQSDCSCSTVSPGVLAGIVMGDLVLTVLIALAVYFLGRLVPRGRGAAEAATRKQRITETESPYQELQGQRSDVYSDLNTQRPYYK
notes: whole, on cells; also called DAP12 adaptor protein
Regarding B2, the binding result is “no binding”.

B3: DAP10 (other, UniProt Q9UBK5 19-93, looked up)
chain: QTTPGERSSLPAFYPGTSGSCSGCGSLSLPLLAGLVAADAVASLLIVGAVFLCARPRRSPAQEDGKVYINMPGRG
notes: whole, on cells
Regarding B3, the binding result was “no binding”.
